Test results published in patent US20190381184A1.

What was measured:
CXCL12 [1] = experiment: Bio-Layer Interferometry, CXCL12 immobilized on the AR2G biosensor, CXCL12 trap at 500, 250 and 125 nM
CXCL12 [2] = experiment: cell-based or functional assay
CXCL12 [3] = experiment: Bio-Layer Interferometry (BLI)
CXCL12 [4] = experiment: Bio-Layer Interferometry; CXCL12 immobilized on AR2G biosensor, different concentrations of CXCL12 trap

B1: CXCL12 trap (engineered VH-linker-VL fusion protein, expressed in and purified from 293T cells) (scFv, V domains shown, not shown: small tags and cut ends)
VH: EVQLVESGGGLVQPGGSLRLSCAASGFSLTVYSVHWVRQAPGKGLEWVGALWGSGGTEYNSNLKSRFTISRDTSKNTVYLQMNSLRAEDTAVYYCARDQGLNYGSLFDYWGQGTLVTVSS
VL: DIQMTQSPSSLSASVGDRVTITCRASESISYSLSWYQQKPGKAPKLLIYNAVKLESGVPSRFSGSGSGTDFTLTISSLQPEDFATYYCKQYWNTPFTFGQGTKVEIKR
modifications: flexible linker; C-terminal E tag, His6 tag
Kd (CXCL12 [1]): 4.1 nM | koff (CXCL12 [1]): 3.64e-05 s⁻¹ | kon (CXCL12 [1]): 8850 M⁻¹ s⁻¹ | invasion of CT-26 FL3 cells stimulated with CXCL12 (100.0 ng/ml) (CXCL12 [2]): 12 µg/mL | migration of CT-26 FL3 cells stimulated with CXCL12 (100.0 ng/ml) (CXCL12 [2]): 8 µg/mL | one-half maximal inhibition [ND50] against biological active CXCL12 (100 ng/ml) in vitro (CXCL12 [2]): 120 nM | one-half maximal inhibition [ND50] of CT-26 FL3 cell migration stimulated with CXCL12 (100 ng/ml) (CXCL12 [2]): 120 nM | Kd (CXCL12 [3]): 4 nM | Kd (CXCL12 [4]): 4 nM
